{"source": "patent US7432070B2", "about": "“Homogenous assay for enzymatic activity” (Pierce Biotechnology, Inc., priority 2003, dated 2008)", "key": {"Calpain 1": {"biological_target": "T1, Calpain 1 (Homo sapiens, UniProt P07384)", "T1 construct": "Calpain 1 from human erythrocytes; purchased Calbiochem; host or cells: human erythrocytes", "T1 sequence (P07384 1-714)": "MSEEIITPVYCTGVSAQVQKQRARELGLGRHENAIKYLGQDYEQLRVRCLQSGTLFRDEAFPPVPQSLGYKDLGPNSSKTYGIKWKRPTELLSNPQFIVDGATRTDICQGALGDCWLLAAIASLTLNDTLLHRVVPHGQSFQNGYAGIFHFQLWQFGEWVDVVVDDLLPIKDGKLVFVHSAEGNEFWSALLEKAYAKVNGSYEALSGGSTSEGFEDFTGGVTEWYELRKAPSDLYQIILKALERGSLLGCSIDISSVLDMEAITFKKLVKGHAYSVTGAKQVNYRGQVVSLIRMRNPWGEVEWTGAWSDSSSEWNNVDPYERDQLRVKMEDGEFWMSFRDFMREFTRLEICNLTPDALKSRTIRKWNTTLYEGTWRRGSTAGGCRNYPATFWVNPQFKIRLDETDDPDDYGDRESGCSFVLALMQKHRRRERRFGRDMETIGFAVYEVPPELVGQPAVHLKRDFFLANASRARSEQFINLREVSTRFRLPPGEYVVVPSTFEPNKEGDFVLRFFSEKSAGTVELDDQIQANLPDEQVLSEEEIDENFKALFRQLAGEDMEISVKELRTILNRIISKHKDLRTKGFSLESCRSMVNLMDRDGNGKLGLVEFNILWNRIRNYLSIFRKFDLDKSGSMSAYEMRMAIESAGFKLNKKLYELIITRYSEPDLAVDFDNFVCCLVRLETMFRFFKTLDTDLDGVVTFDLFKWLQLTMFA", "T1 sequence (P04632 1-268 partner)": "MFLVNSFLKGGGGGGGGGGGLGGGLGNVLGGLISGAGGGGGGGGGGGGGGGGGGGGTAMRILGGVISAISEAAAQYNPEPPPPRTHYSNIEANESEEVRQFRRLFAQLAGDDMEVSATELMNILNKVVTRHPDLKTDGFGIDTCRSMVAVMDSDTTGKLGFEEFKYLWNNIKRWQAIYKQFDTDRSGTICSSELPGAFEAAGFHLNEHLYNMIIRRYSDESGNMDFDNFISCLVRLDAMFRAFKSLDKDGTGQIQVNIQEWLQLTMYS", "assay": "Km determination for Calpain 1 using the protease assay", "type": "biochemical", "conditions": "substrate at 0.078, 0.15, 0.31 and 0.62 μM, 13.15 U/ml Calpain 1, 5 minutes, room temperature, N=3; read-out: Km of labeled peptide substrate for Calpain 1", "method": "(§1) Pepsin A was purchased from Sigma. TPCK Trypsin was obtained from Pierce Biotechnology.\nCalpain 1 Lissamine rhodamine-labeled peptide substrate (Dye-[…] PRDpSA) (SEQ. ID NO 3) at 0.078, 0.15, 0.31 and 0.62 μM were digested with 13.15 U/ml Calpain 1. The Lissamine rhodamine-labeled peptide was prepared in 25 mM Tris, 150 mM NaCl pH 7.5, 10 mM CaCl2, and Calpain 1 was prepared in 25 mM Tris, 150 mM NaCl pH 7.5. […] N=3."}, "MMP-3": {"biological_target": "T2, MMP-3 (Homo sapiens, UniProt P08254)", "T2 construct": "Recombinant MMP-3 catalytic subunit; purchased Calbiochem", "T2 sequence (P08254 100-272 limits assumed, species assumed)": "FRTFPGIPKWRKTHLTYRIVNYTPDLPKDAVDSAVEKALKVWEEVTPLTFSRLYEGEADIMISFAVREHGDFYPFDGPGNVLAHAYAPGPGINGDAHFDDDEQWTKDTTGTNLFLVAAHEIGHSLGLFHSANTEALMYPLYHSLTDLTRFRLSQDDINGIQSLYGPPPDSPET", "assay": "Km determination for MMP-3 using the protease assay", "type": "biochemical", "conditions": "substrate at 1, 2, 5 and 10 μM, 0.88 mU/ml MMP-3, 5 minutes, room temperature, N=3; read-out: Km of labeled peptide substrate for MMP-3", "text": "as §1"}}, "note": "Non-standard residues stand in square brackets, D forms with d. No end group written: not given here. pS = N[C@@H](COP(=O)(O)O)C(=O)O; Nva = CCC[C@H](N)C(=O)O"}
{"substance": "Dye-QQQEVYGMM PRDpSA: Calpain 1 Lissamine rhodamine-labeled peptide substrate, label at the N-terminus ({Lissamine rhodamine}-QQQEVYGMMPRD[pS]A)", "values": [{"measurement": "Km", "setting": "Calpain 1", "value": "0.17 ± 0.01", "unit": "µM"}]}
{"substance": "Dye-RPKPVE-Norvaline-WRKpSA: MMP-3 Lissamine rhodamine-labeled peptide substrate, label at the N-terminus ({Lissamine rhodamine}-RPKPVE[Nva]WRK[pS]A)", "values": [{"measurement": "Km", "setting": "MMP-3", "value": "1.44 ± 0.15", "unit": "µM"}]}
